{
  "source": "the RNAGym collection of RNA variant scans (doi:10.7554/elife.90254)",
  "parents": {"B1": {"name": "LINE1-full (parent)", "chain": "UACGUAGGUGGUUUUCCCCUGAUAGUGCUAAGGGGGCCUGGAAGUUUGGACUGGGCAGAGCUCAACACAGCGUGGCAAAGUGGCUGUGGCUAGACUGCCUCUCUGGAUUCCUCGUCACUCAGCAGGGCAUCUCUGAGAGAAAUGCC"}},
  "data": [
    {"variants_of": "B1", "assay": "self-cleavage, relative activity (ratio to wild type); higher = more cleavage; in vitro, sequencing; the parent is a self-cleaving ribozyme", "values": [
      {"variant": "U9A A136U", "self-cleavage": 0.81},
      {"variant": "G8A U47C", "self-cleavage": 1.82},
      {"variant": "U9A U100A", "self-cleavage": 0.72},
      {"variant": "U9A A64G", "self-cleavage": 0.26},
      {"variant": "U9A A65G", "self-cleavage": 0.21},
      {"variant": "G8U U29C", "self-cleavage": 1.99},
      {"variant": "U9A C98U", "self-cleavage": 0.28},
      {"variant": "U9A G144A", "self-cleavage": 1.19},
      {"variant": "U9C C51A", "self-cleavage": 0.63},
      {"variant": "G8A U91C", "self-cleavage": 0.69},
      {"variant": "U9A A50G", "self-cleavage": 1.03},
      {"variant": "U9A A50U", "self-cleavage": 0.45},
      {"variant": "U9A U108A", "self-cleavage": 1.01},
      {"variant": "U9C A92U", "self-cleavage": 0.28},
      {"variant": "U9C A92C", "self-cleavage": 0.48},
      {"variant": "U9C A92G", "self-cleavage": 0.1},
      {"variant": "G8U U119A", "self-cleavage": 1.51},
      {"variant": "U9A A79U", "self-cleavage": 1.59},
      {"variant": "U9A A79G", "self-cleavage": 1.01},
      {"variant": "U9A A24G", "self-cleavage": 0.93},
      {"variant": "U9A U12A", "self-cleavage": 0.37},
      {"variant": "U9C A30G", "self-cleavage": 1.21},
      {"variant": "U9C A30U", "self-cleavage": 0.87},
      {"variant": "U9C C18U", "self-cleavage": 1},
      {"variant": "U9C C17A", "self-cleavage": 1.31},
      {"variant": "U9A C131U", "self-cleavage": 0.79},
      {"variant": "U9A U20C", "self-cleavage": 0.88},
      {"variant": "U9A G60A", "self-cleavage": 0.1},
      {"variant": "U9A G60U", "self-cleavage": 0},
      {"variant": "U9A U91A", "self-cleavage": 0.53},
      {"variant": "U9A U91C", "self-cleavage": 0.36},
      {"variant": "U9A U115A", "self-cleavage": 1.09},
      {"variant": "G8C U45C", "self-cleavage": 2.04},
      {"variant": "U9C C131U", "self-cleavage": 1.6},
      {"variant": "G8U A42U", "self-cleavage": 1.17},
      {"variant": "U9C G10A", "self-cleavage": 0.86},
      {"variant": "U9A A92G", "self-cleavage": 0.15},
      {"variant": "U9C A22G", "self-cleavage": 1.03},
      {"variant": "U9A A138U", "self-cleavage": 1.01},
      {"variant": "U9C C19A", "self-cleavage": 1.55},
      {"variant": "U9C C19U", "self-cleavage": 1.65},
      {"variant": "U9A A140U", "self-cleavage": 1.08},
      {"variant": "U9A A124C", "self-cleavage": 1.74},
      {"variant": "U9A A124G", "self-cleavage": 1.02},
      {"variant": "U9A A69U", "self-cleavage": 0.06},
      {"variant": "U9A U14C", "self-cleavage": 0.89},
      {"variant": "U9A U14G", "self-cleavage": 0},
      {"variant": "U9A A43U", "self-cleavage": 0.61},
      {"variant": "U9A A43G", "self-cleavage": 1.1},
      {"variant": "U9A G88A", "self-cleavage": 0.12},
      {"variant": "G8U U9A", "self-cleavage": 2.01},
      {"variant": "U9A U62C", "self-cleavage": 0.09},
      {"variant": "U9C A65G", "self-cleavage": 0.16},
      {"variant": "U9C A79U", "self-cleavage": 1.66},
      {"variant": "U9C A79C", "self-cleavage": 1.2},
      {"variant": "U9C A79G", "self-cleavage": 1.35},
      {"variant": "U9A U29C", "self-cleavage": 1.19},
      {"variant": "U9A U29A", "self-cleavage": 0.79},
      {"variant": "U9A U87A", "self-cleavage": 0.15},
      {"variant": "U9A U87C", "self-cleavage": 0.19},
      {"variant": "G8C A22G", "self-cleavage": 0},
      {"variant": "U9C C118U", "self-cleavage": 0.92},
      {"variant": "U9C G36C", "self-cleavage": 2.16},
      {"variant": "U9C G34U", "self-cleavage": 1.09},
      {"variant": "U9A A77G", "self-cleavage": 1.61},
      {"variant": "U9C A43U", "self-cleavage": 0.77},
      {"variant": "G8U A59G", "self-cleavage": 0.12},
      {"variant": "U9C A69U", "self-cleavage": 0.06},
      {"variant": "U9C", "self-cleavage": 1.22},
      {"variant": "U9A", "self-cleavage": 1.05},
      {"variant": "U9C A64U", "self-cleavage": 0.6},
      {"variant": "U9C A64C", "self-cleavage": 0.35},
      {"variant": "G8A U96C", "self-cleavage": 0.15},
      {"variant": "G8A U96A", "self-cleavage": 0.08},
      {"variant": "U9C C95U", "self-cleavage": 0.19},
      {"variant": "U9A U73C", "self-cleavage": 0.94},
      {"variant": "U9A U73A", "self-cleavage": 1.29},
      {"variant": "U9C C120U", "self-cleavage": 1.3},
      {"variant": "U9C C56U", "self-cleavage": 0.37},
      {"variant": "G8U", "self-cleavage": 1.39},
      {"variant": "G8C", "self-cleavage": 1.66},
      {"variant": "U9A U130A", "self-cleavage": 1.23},
      {"variant": "U9A U130C", "self-cleavage": 1.07},
      {"variant": "U9C A140U", "self-cleavage": 1.35},
      {"variant": "U9C A140G", "self-cleavage": 1.19},
      {"variant": "G8U C128U", "self-cleavage": 1.14},
      {"variant": "U9A A67U", "self-cleavage": 0.25},
      {"variant": "U9A A129C", "self-cleavage": 1.22},
      {"variant": "U9A A129G", "self-cleavage": 1.24},
      {"variant": "U9C A31U", "self-cleavage": 1.2},
      {"variant": "U9C A31G", "self-cleavage": 0.91},
      {"variant": "G8U G35A", "self-cleavage": 1.41},
      {"variant": "G8A U109C", "self-cleavage": 1.21},
      {"variant": "U9A C111G", "self-cleavage": 1.11},
      {"variant": "U9C C113A", "self-cleavage": 1.2},
      {"variant": "U9C C113U", "self-cleavage": 1.08},
      {"variant": "U9A U23C", "self-cleavage": 0.93},
      {"variant": "U9A U104G", "self-cleavage": 0.98},
      {"variant": "U9A U104A", "self-cleavage": 1.29},
      {"variant": "U9A U15C", "self-cleavage": 1.08},
      {"variant": "G8U U109C", "self-cleavage": 0.67},
      {"variant": "U9C A117C", "self-cleavage": 1.41},
      {"variant": "U9A A59G", "self-cleavage": 0.18},
      {"variant": "U9A C110U", "self-cleavage": 1.06},
      {"variant": "U9A U45G", "self-cleavage": 1.05},
      {"variant": "U9C A57U", "self-cleavage": 0.24},
      {"variant": "G8C A141U", "self-cleavage": 1.33},
      {"variant": "U9C A138U", "self-cleavage": 1.92},
      {"variant": "U9C C90G", "self-cleavage": 0.09},
      {"variant": "U9C C90U", "self-cleavage": 0.09},
      {"variant": "G8U U39A", "self-cleavage": 1.12},
      {"variant": "U9A G97A", "self-cleavage": 0.12},
      {"variant": "U9A C37G", "self-cleavage": 0.82},
      {"variant": "U9A A107G", "self-cleavage": 1.02},
      {"variant": "U9A G36A", "self-cleavage": 1.09},
      {"variant": "U9A G70A", "self-cleavage": 0.12},
      {"variant": "U9A A22G", "self-cleavage": 1.53},
      {"variant": "U9C C116G", "self-cleavage": 1.21},
      {"variant": "U9A U119C", "self-cleavage": 1.04},
      {"variant": "U9C A59G", "self-cleavage": 0.11},
      {"variant": "U9C G11A", "self-cleavage": 1.07},
      {"variant": "U9C A42C", "self-cleavage": 0.88},
      {"variant": "U9C G21U", "self-cleavage": 1.37},
      {"variant": "U9A U46A", "self-cleavage": 1.22},
      {"variant": "U9C A24G", "self-cleavage": 1.04},
      {"variant": "G8U U115C", "self-cleavage": 1.93},
      {"variant": "U9A C116U", "self-cleavage": 0.95},
      {"variant": "U9C A50G", "self-cleavage": 1},
      {"variant": "U9C A50U", "self-cleavage": 1.38},
      {"variant": "U9C C98U", "self-cleavage": 0.59},
      {"variant": "U9A U96C", "self-cleavage": 0.19},
      {"variant": "G8A U115C", "self-cleavage": 1.33},
      {"variant": "U9A G54A", "self-cleavage": 0.65},
      {"variant": "U9A C123U", "self-cleavage": 1.11},
      {"variant": "U9A G40A", "self-cleavage": 1},
      {"variant": "U9C A124G", "self-cleavage": 1.15},
      {"variant": "U9C A124C", "self-cleavage": 2.53},
      {"variant": "U9A C19U", "self-cleavage": 0.71},
      {"variant": "U9C G33A", "self-cleavage": 1.01},
      {"variant": "U9A U109A", "self-cleavage": 0.14},
      {"variant": "U9A A121U", "self-cleavage": 2.38},
      {"variant": "U9A A121G", "self-cleavage": 1.56},
      {"variant": "G8U U81A", "self-cleavage": 2.37},
      {"variant": "U9A C103U", "self-cleavage": 0.84},
      {"variant": "G8A U87C", "self-cleavage": 0.19},
      {"variant": "U9A A94U", "self-cleavage": 0.39},
      {"variant": "G8A U85C", "self-cleavage": 0.25},
      {"variant": "U9C A78U", "self-cleavage": 2.65},
      {"variant": "U9C A78C", "self-cleavage": 1.5},
      {"variant": "U9C A77U", "self-cleavage": 1.19},
      {"variant": "U9A G125U", "self-cleavage": 0.15},
      {"variant": "G8U A136G", "self-cleavage": 0.46},
      {"variant": "G8C U81C", "self-cleavage": 1.08},
      {"variant": "U9C A129G", "self-cleavage": 1.66},
      {"variant": "U9C A129U", "self-cleavage": 1.27},
      {"variant": "U9C A129C", "self-cleavage": 1.24},
      {"variant": "U9A G33U", "self-cleavage": 1.6},
      {"variant": "U9A U134A", "self-cleavage": 1.17},
      {"variant": "G8U C145U", "self-cleavage": 2.38},
      {"variant": "G8U A129G", "self-cleavage": 0.32},
      {"variant": "G8U U14C", "self-cleavage": 2.04},
      {"variant": "U9C G25U", "self-cleavage": 0.96},
      {"variant": "U9C A121G", "self-cleavage": 1.27},
      {"variant": "U9A C38A", "self-cleavage": 1.26},
      {"variant": "U9C G35U", "self-cleavage": 1.13},
      {"variant": "U9A C120U", "self-cleavage": 1.12},
      {"variant": "G8A U112C", "self-cleavage": 1.03}
    ]}
  ]
}
